Measurements: publication PMC9881158, “The DEAD-box protein Dbp6 is an ATPase and RNA annealase interacting with the peptidyl transferase center (PTC) of the ribosome” (Nucleic Acids Research, 2023)

Experiments:
Dbp6 ΔN [1] = target: T1, Dbp6 ΔN (Saccharomyces cerevisiae, UniProt P53734 1-629, del24-128); test: EMSA; 0.5 uM protein; like WT; EMSA: 1 nM 32P-RNA, RB 1x (composition not in the material), RNasin, 15 min at 30 C, native PAGE in TBE; bridging: 0.8 uM Dbp6, RB 1x, 15 min at 30 C; details: protein: recombinant; tags: N-terminal His6; chain copies: 2; label: 32P
T1 sequence: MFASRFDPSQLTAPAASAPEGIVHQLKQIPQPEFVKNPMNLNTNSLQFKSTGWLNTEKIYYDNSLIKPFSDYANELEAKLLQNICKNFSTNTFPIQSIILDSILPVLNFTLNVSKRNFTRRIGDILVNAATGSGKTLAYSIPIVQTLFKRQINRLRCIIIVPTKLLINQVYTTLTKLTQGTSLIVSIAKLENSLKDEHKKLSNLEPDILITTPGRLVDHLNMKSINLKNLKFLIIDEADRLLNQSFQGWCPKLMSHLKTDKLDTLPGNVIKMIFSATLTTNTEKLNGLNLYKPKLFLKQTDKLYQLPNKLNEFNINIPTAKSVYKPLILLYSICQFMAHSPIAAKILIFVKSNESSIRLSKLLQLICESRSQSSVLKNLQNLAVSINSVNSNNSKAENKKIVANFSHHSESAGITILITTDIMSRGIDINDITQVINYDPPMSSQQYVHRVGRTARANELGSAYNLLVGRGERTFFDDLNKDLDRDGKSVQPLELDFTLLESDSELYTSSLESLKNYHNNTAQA

Dbp6 M-I [2] = target: T2, Dbp6 M-I (Saccharomyces cerevisiae, UniProt P53734 1-629, K240A); test: EMSA; 0.5 uM protein; stronger than WT; EMSA: 1 nM 32P-RNA, RB 1x (composition not in the material), RNasin, 15 min at 30 C, native PAGE in TBE; bridging: 0.8 uM Dbp6, RB 1x, 15 min at 30 C; details: protein: recombinant; tags: N-terminal His6; chain copies: 2; label: 32P
T2 sequence: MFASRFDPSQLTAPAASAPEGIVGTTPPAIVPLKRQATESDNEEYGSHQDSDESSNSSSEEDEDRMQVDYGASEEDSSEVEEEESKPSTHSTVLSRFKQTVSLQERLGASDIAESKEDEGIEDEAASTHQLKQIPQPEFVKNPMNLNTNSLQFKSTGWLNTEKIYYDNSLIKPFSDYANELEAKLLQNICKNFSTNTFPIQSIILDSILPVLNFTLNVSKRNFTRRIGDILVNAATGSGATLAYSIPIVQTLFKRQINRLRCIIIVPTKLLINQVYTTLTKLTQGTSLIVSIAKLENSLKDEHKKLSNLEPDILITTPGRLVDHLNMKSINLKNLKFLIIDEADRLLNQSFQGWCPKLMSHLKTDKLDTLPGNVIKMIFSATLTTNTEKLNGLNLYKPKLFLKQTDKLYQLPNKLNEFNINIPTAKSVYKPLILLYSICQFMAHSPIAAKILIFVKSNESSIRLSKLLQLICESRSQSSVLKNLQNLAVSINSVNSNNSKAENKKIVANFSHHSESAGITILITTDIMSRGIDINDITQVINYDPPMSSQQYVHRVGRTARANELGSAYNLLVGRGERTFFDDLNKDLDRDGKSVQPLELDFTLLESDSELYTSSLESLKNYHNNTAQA

Dbp6 M-II = target: T3, Dbp6 M-II (Saccharomyces cerevisiae, UniProt P53734 1-629, E342A); test: EMSA; 0.25 uM protein; stronger than WT; EMSA: 1 nM 32P-RNA, RB 1x (composition not in the material), RNasin, 15 min at 30 C, native PAGE in TBE; bridging: 0.8 uM Dbp6, RB 1x, 15 min at 30 C; details: protein: recombinant, tags: N-terminal His6, chain copies: 2
T3 sequence: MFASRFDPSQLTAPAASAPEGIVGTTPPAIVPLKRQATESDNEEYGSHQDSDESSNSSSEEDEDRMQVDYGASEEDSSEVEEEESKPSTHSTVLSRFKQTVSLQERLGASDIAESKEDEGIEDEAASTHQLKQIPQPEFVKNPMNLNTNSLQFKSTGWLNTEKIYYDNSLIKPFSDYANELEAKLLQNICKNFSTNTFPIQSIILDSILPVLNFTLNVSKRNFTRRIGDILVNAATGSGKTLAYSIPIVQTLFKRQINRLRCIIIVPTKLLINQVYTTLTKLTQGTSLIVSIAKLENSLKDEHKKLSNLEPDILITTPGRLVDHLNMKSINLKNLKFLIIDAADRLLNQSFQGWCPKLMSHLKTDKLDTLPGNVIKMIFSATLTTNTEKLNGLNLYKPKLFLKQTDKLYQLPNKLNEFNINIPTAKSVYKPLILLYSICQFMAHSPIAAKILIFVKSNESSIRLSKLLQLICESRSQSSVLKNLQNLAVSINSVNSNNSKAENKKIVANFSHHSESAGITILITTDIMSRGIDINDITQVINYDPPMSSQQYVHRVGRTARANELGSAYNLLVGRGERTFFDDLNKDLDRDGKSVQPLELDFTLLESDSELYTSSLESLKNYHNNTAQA

Dbp6 ΔN [3] = target: T1, Dbp6 ΔN; test: EMSA; 0.25 uM protein; like WT; EMSA: 1 nM 32P-RNA, RB 1x (composition not in the material), RNasin, 15 min at 30 C, native PAGE in TBE; bridging: 0.8 uM Dbp6, RB 1x, 15 min at 30 C; details: protein: recombinant; tags: N-terminal His6; chain copies: 2; label: 32P on ss38-mer; 3' overhang 20 nt on strand 1; 38 bp region with one C-C mismatch
Dbp6 M-I [4] = target: T2, Dbp6 M-I; test: EMSA; 0.25 uM protein; not increased over WT; EMSA: 1 nM 32P-RNA, RB 1x (composition not in the material), RNasin, 15 min at 30 C, native PAGE in TBE; bridging: 0.8 uM Dbp6, RB 1x, 15 min at 30 C; details: protein: recombinant; tags: N-terminal His6; chain copies: 2; label: 32P on ss38-mer; 3' overhang 20 nt on strand 1; 38 bp region with one C-C mismatch

Measured: binding result

CAGAACCGCUACACUGAAAUGAUCAAUUCCGGUCUCCC (ssRNA) [ss38-mer]
binds: Dbp6 ΔN [1] | Dbp6 M-I [2] | Dbp6 M-II; label: 32P

B1: ds38/58 hemi-duplex (dsRNA)
RNA 1: GGGAGACCGGAAUUCAUCAUUUCAGUGUAGCGGUUCUGACGUGCAAAUCGAUCGUCGA
RNA 2: CAGAACCGCUACACUGAAAUGAUCAAUUCCGGUCUCCC
binds: Dbp6 ΔN [3] | Dbp6 M-II; label: 32P on ss38-mer, 3' overhang 20 nt on strand 1, 38 bp region with one C-C mismatch | Dbp6 M-I [4]
